In the supplement of paper PMC5998384:

Columns and labels:
HeLa Kyoto [1] = assay: solubility in G1/S (NP-40 vs SDS abundance) (log2 ratio); higher = more soluble; conditions: cell cycle stage: G1/S
HeLa Kyoto [2] = assay: melting temperature (median over replicates), in situ; higher = more thermally stable
HeLa Kyoto [3] = assay: solubility change mitosis vs G1/S (difference of NP-40 vs SDS log2 ratios) (log2 ratio difference); higher = more soluble in mitosis
HeLa Kyoto [4] = assay: thermal stability score vs G1/S (z-score of summed log2 fold changes over temperatures); higher = more thermally stable than in G1/S
[5] = cell cycle stage: early G1 (4.5 h after nocodazole release)
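Wherever melting temperature (median over replicates), in situ is given: HeLa Kyoto cells synchronized by double thymidine or nocodazole block, proteins quantified by TMT10plex mass spectrometry, three independent biological replicates.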
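Wherever solubility change mitosis vs G1/S (difference of NP-40 vs SDS log2 ratios) is given: synchronized HeLa Kyoto cells (double thymidine block for G1/S, nocodazole release for mitosis), protein amounts in NP-40 versus SDS lysates quantified by mass spectrometry, three biological replicates.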
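Wherever solubility in G1/S (NP-40 vs SDS abundance) is given: HeLa Kyoto cells arrested at G1/S by double thymidine block, proteins quantified by TMT10plex mass spectrometry in mild NP-40 versus SDS extracts, three biological replicates.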
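Wherever thermal stability score vs G1/S (z-score of summed log2 fold changes over temperatures) is given: synchronized HeLa Kyoto cells, proteins quantified by TMT10plex mass spectrometry, three biological replicates, mitosis taken 0.5 h after nocodazole release, G1/S directly after double thymidine block.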

Substance: MYGSARSVGKVEPSSQSPGRSPRLPRSPRLGHRRTNSTGGSSGSSVGGGSGKTLSMENIQSLNAAYATSGPMYLSDHENVGSETPKSTMTLGRSGGRLPYGVRMTAMGSSPNIASSGVASDTIAFGEHHLPPVSMASTVPHSLRQARDNTIMDLQTQLKEVLRENDLLRKDVEVKESKLSSSMNSIKTFWSPELKKERALRKDEASKITIWKEQYRVVQEENQHMQMTIQALQDELRIQRDLNQLFQQDSSSRTGEPCVAELTEENFQRLHAEHERQAKELFLLRKTLEEMELRIETQKQTLNARDESIKKLLEMLQSKGLSAKATEEDHERTRRLAEAEMHVHHLESLLEQKEKENSMLREEMHRRFENAPDSAKTKALQTVIEMKDSKISSMERGLRDLEEEIQMLKSNGALSTEEREEEMKQMEVYRSHSKFMKNKVEQLKEELSSKEAQWEELKKKAAGLQAEIGQVKQELSRKDTELLALQTKLETLTNQFSDSKQHIEVLKESLTAKEQRAAILQTEVDALRLRLEEKETMLNKKTKQIQDMAEEKGTQAGEIHDLKDMLDVKERKVNVLQKKIENLQEQLRDKEKQMSSLKERVKSLQADTTNTDTALTTLEEALAEKERTIERLKEQRDRDEREKQEEIDNYKKDLKDLKEKVSLLQGDLSEKEASLLDLKEHASSLASSGLKKDSRLKTLEIALEQKKEECLKMESQLKKAHEAALEARASPEMSDRIQHLEREITRYKDESSKAQAEVDRLLEILKEVENEKNDKDKKIAELERQVKDQNKKVANLKHKEQVEKKKSAQMLEEARRREDNLNDSSQQLQDSLRKKDDRIEELEEALRESVQITAEREMVLAQEESARTNAEKQVEELLMAMEKVKQELESMKAKLSSTQQSLAEKETHLTNLRAERRKHLEEVLEMKQEALLAAISEKDANIALLELSSSKKKTQEEVAALKREKDRLVQQLKQQTQNRMKLMADNYEDDHFKSSHSNQTNHKPSPDQIIQPLLELDQNRSKLKLYIGHLTTLCHDRDPLILRGLTPPASYNLDDDQAAWENELQKMTRGQLQDELEKGERDNAELQEFANAILQQIADHCPDILEQVVNALEESS [ERC1]
- solubility in G1/S (log2) (HeLa Kyoto [1]): 0.626
- melting temperature (HeLa Kyoto [2]; cell cycle stage: G1/S): 48.4 °C
- melting temperature (HeLa Kyoto [2]; cell cycle stage: mitosis): 50.1 °C
- solubility change mitosis (log2) (HeLa Kyoto [3]): 0.00205
- thermal stability score (HeLa Kyoto [4]; [5]): 1.35
- thermal stability score (HeLa Kyoto [4]; cell cycle stage: mitosis): 1.65

Substance: MIA3
- solubility in G1/S (log2) (HeLa Kyoto [1]): 0.245
- melting temperature (HeLa Kyoto [2]; cell cycle stage: G1/S): 51.4 °C
- melting temperature (HeLa Kyoto [2]; cell cycle stage: mitosis): 52.2 °C
- solubility change mitosis (log2) (HeLa Kyoto [3]): -0.082
- thermal stability score (HeLa Kyoto [4]; [5]): 3.98
- thermal stability score (HeLa Kyoto [4]; cell cycle stage: mitosis): 7.12

Substance: MRPEPGGCCCRRTVRANGCVANGEVRNGYVRSSAAAAAAAAAGQIHHVTQNGGLYKRPFNEAFEETPMLVAVLTYVGYGVLTLFGYLRDFLRYWRIEKCHHATEREEQKDFVSLYQDFENFYTRNLYMRIRDNWNRPICSVPGARVDIMERQSHDYNWSFKYTGNIIKGVINMGSYNYLGFARNTGSCQEAAAKVLEEYGAGVCSTRQEIGNLDKHEELEELVARFLGVEAAMAYGMGFATNSMNIPALVGKGCLILSDELNHASLVLGARLSGATIRIFKHNNMQSLEKLLKDAIVYGQPRTRRPWKKILILVEGIYSMEGSIVRLPEVIALKKKYKAYLYLDEAHSIGALGPTGRGVVEYFGLDPEDVDVMMGTFTKSFGASGGYIGGKKELIDYLRTHSHSAVYATSLSPPVVEQIITSMKCIMGQDGTSLGKECVQQLAENTRYFRRRLKEMGFIIYGNEDSPVVPLMLYMPAKIGAFGREMLKRNIGVVVVGFPATPIIESRARFCLSAAHTKEILDTALKEIDEVGDLLQLKYSRHRLVPLLDRPFDETTYEETED [SPTLC2]
- solubility in G1/S (log2) (HeLa Kyoto [1]): 0.00928
- melting temperature (HeLa Kyoto [2]; cell cycle stage: G1/S): 53 °C
- melting temperature (HeLa Kyoto [2]; cell cycle stage: mitosis): 52.7 °C
- solubility change mitosis (log2) (HeLa Kyoto [3]): -0.16
- thermal stability score (HeLa Kyoto [4]; [5]): 0.665
- thermal stability score (HeLa Kyoto [4]; cell cycle stage: mitosis): -0.386

Substance: MAFVPVIPESYSHVLAEFESLDPLLSALRLDSSRLKCTSIAVSRKWLALGSSGGGLHLIQKEGWKHRLFLSHREGAISQVACCLHDDDYVAVATSQGLVVVWELNQERRGKPEQMYVSSEHKGRRVTALCWDTAILRVFVGDHAGKVSAIKLNTSKQAKAAAAFVMFPVQTITTVDSCVVQLDYLDGRLLISSLTRSFLCDTEREKFWKIGNKERDGEYGACFFPGRCSGGQQPLIYCARPGSRMWEVNFDGEVISTHQFKKLLSLPPLPVITLRSEPQYDHTAGSSQSLSFPKLLHLSEHCVLTWTERGIYIFIPQNVQVLLWSEVKDIQDVAVCRNELFCLHLNGKVSHLSLISVERCVERLLRRGLWNLAARTCCLFQNSVIASRARKTLTADKLEHLKSQLDHGTYNDLISQLEELILKFEPLDSACSSRRSSISSHESFSILDSGIYRIISSRRGSQSDEDSCSLHSQTLSEDERFKEFTSQQEEDLPDQCCGSHGNEDNVSHAPVMFETDKNETFLPFGIPLPFRSPSPLVSLQAVKESVSSFVRKTTEKIGTLHTSPDLKVRPELRGDEQSCEEDVSSDTCPKEEDTEEEKEVTSPPPEEDRFQELKVATAEAMTKLQDPLVLFESESLRMVLQEWLSHLEKTFAMKDFSGVSDTDNSSMKLNQDVLLVNESKKGILDEDNEKEKRDSLGNEESVDKTACECVRSPRESLDDLFQICSPCAIASGLRNDLAELTTLCLELNVLNSKIKSTSGHVDHTLQQYSPEILACQFLKKYFFLLNLKRAKESIKLSYSNSPSVWDTFIEGLKEMASSNPVYMEMEKGDLPTRLKLLDDEVPFDSPLLVVYATRLYEKFGESALRSLIKFFPSILPSDIIQLCHHHPAEFLAYLDSLVKSRPEDQRSSFLESLLQPESLRLDWLLLAVSLDAPPSTSTMDDEGYPRPHSHLLSWGYSQLILHLIKLPADFITKEKMTDICRSCGFWPGYLILCLELERRREAFTNIVYLNDMSLMEGDNGWIPETVEEWKLLLHLIQSKSTRPAPQESLNGSLSDGPSPINVENVALLLAKAMGPDRAWSLLQECGLALELSEKFTRTCDILRIAEKRQRALIQSMLEKCDRFLWSQQA [HPS5]
- solubility in G1/S (log2) (HeLa Kyoto [1]): -0.142
- melting temperature (HeLa Kyoto [2]; cell cycle stage: G1/S): 48.6 °C
- melting temperature (HeLa Kyoto [2]; cell cycle stage: mitosis): 49.5 °C
- solubility change mitosis (log2) (HeLa Kyoto [3]): -0.108
- thermal stability score (HeLa Kyoto [4]; [5]): 1.53
- thermal stability score (HeLa Kyoto [4]; cell cycle stage: mitosis): 1.55

Substance: ZNF629
- solubility in G1/S (log2) (HeLa Kyoto [1]): -0.355
- melting temperature (HeLa Kyoto [2]; cell cycle stage: G1/S): 53.4 °C
- melting temperature (HeLa Kyoto [2]; cell cycle stage: mitosis): 52.9 °C
- solubility change mitosis (log2) (HeLa Kyoto [3]): -0.0563
- thermal stability score (HeLa Kyoto [4]; [5]): 0.477
- thermal stability score (HeLa Kyoto [4]; cell cycle stage: mitosis): -1.32
